This is an account of results in the supplement of paper PMC12042874.

± gives the uncertainty stated by the source.

This series can be described thus: amyloid nucleation score (Sup35N fusion, yeast selection) (log enrichment); library NNK1; higher = more nucleation; inactive = no reads after selection. An outline of the steps:
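Random libraries were run with three technical output replicates. In each, psi-negative yeast expressing Sup35N fused to peptides of 20 random codons were induced 24 hours with 100 μM copper sulfate and grown 7 days at 30°C on medium lacking adenine and uracil, and input and output plasmid inserts were Illumina-sequenced. The nucleation score is the DiMSum log enrichment of output over input reads, centred on the mode score of non-aggregating sequences, and sequences under 100 input reads were excluded.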
In the case of FIVDLWCMLFNSILAGCVVV, the amyloid nucleation score is -0.008 ± 0.21. In the case of PETIW, the amyloid nucleation score stood at 1.49 ± 0.5. SCGNLIVRPLVGVCHAWNEE returned an amyloid nucleation score of 0.489 ± 0.46.

For the substance LRASAWHQFHFAV, the amyloid nucleation score was 0.376 ± 0.78. The value for NREIPQWIGFVY was 1.12 ± 0.65. On to RRPASFLFFTYPILLQVFTF, for which the amyloid nucleation score was -1.22 ± 2.1. NTAFSERTWLVRFKMVPRWK: the amyloid nucleation score stood at 0.647 ± 0.83. For GNFMVW, the amyloid nucleation score is -0.403 ± 0.58. TSEQYESLCWVSSLRRIFQK displayed an amyloid nucleation score of 0.043 ± 0.48. The value for TLVQCVSWISGSDKSHRMTI was -1.52 ± 2.7. In turn, GYEVKMHYSVLIINNSCPCL gave an amyloid nucleation score of 0.95 ± 0.25. The value for FVLRRLALQ was -0.992 ± 0.39; that for YFKLIVLVGLNAREWRAAMV was -0.221 ± 0.4. VFVVSVNHRMIVNFTSCLNV: the amyloid nucleation score entry was “inactive”. For GNVRYAPYVVGIKLIRANSC, the amyloid nucleation score is -0.381 ± 0.81. Regarding CIYWALGRAMRLPSGTGARG, the amyloid nucleation score came out at 0.099 ± 0.95.

In the case of SLDYVSQFIQLLRFFKFYMV, the amyloid nucleation score entry is “inactive”. In the case of DDGGLSFGSGNSQSSKKIWL it was 0.853 ± 0.42. Turning to YAFARCLTHINVVALIVRMC, the amyloid nucleation score was -1.18 ± 0.64. RNKSGSGYKLFVSGELAQQM: the amyloid nucleation score result is “inactive”.

As to CKRNQTTVSVVGWFI, the amyloid nucleation score is -0.227 ± 1.2. ITRPGKWGRGD: the amyloid nucleation score was determined as 0.782 ± 0.35.

IRDDCTYYVSAE displayed an amyloid nucleation score of 0.634 ± 0.23. With LARYMIYWGLMSAGRHRRHY, the amyloid nucleation score was -0.46 ± 0.43. As to IQWGEKNGCGHLGQFMWYDG, the amyloid nucleation score turned out to be 0.193 ± 0.58. In the case of VCINFHYLVGINVIRRNDWV it was 4.48 ± 0.1; in that of WYPAANLRLVALIKGVSAVT, -2.23 ± 2.4; in that of NLYPDLGVLVGCHSDKWSNL, -0.115 ± 1.3. Regarding SFCNFQGVRFFL, the amyloid nucleation score worked out at 1.73 ± 0.2. Regarding LQRCAKLYSMSILTYAIIRF, the amyloid nucleation score is -0.525 ± 0.28. VRSLAFTNVYFEEGAYVANT: the amyloid nucleation score was -0.532 ± 0.73.

With GLKRWSIGFRDGERQSCRVR, the amyloid nucleation score was -0.523 ± 0.35.

With VVLRLRSSYFGGLAGMA, the amyloid nucleation score came out at 0.121 ± 0.33. In the case of FYLFVMKDASILYLVCSFSF, the amyloid nucleation score is -0.46 ± 0.4.

The substance SASVAHLCDYVVENI showed an amyloid nucleation score of 0.018 ± 0.54. On to IIVIIVLLDLDVSWVDYEVM, for which the amyloid nucleation score was -0.157 ± 0.78. KHQSHFLVV registered an amyloid nucleation score of 0.872 ± 0.45. PCLSDMRLTSAEKGFV registered an amyloid nucleation score of 0.455 ± 0.69.

As to YVLMPWSFLLHGMRNLTAMS, the amyloid nucleation score entry was “inactive”. For PSYIHMVSGRFSFSSPRGQK, the amyloid nucleation score worked out at 0.029 ± 0.49.

The substance DLYSGSSFPEISGETSGYIP showed an amyloid nucleation score of 0.06 ± 0.49.

Substance YRKRYDWWTVEAVLASVFGS had an amyloid nucleation score of 1.18 ± 0.57. In the case of FLSVASFTRI it was 0.246 ± 0.32; in that of IASFKWGFLMDYNLYVSSSG, 0.261 ± 0.38. NLNTASQNIASLGLGALVLW yielded an amyloid nucleation score of 0.073 ± 0.44. For the substance IVVVGD, the amyloid nucleation score is -1.63 ± 1.3. As for PNLMLAFVL, the amyloid nucleation score came to 1.14 ± 0.41. With KRFSKDLLMAESDLCIGCMM, the amyloid nucleation score is -0.817 ± 2.4.

For the substance NNSHFQSNGNIWSNNSSPSA, the amyloid nucleation score result is “inactive”. SLSTGIAFINLAACVYSKLT displayed an amyloid nucleation score of 2.85 ± 0.18. SYTSRPYFTNIYVDYWFMVC returned an amyloid nucleation score of 6.216 ± 0.05.

VANTCWQMMFLRMLSYFLRV: the amyloid nucleation score is 0.687 ± 0.44. With VRVFTHSSVGREE, the amyloid nucleation score is -0.177 ± 0.25. In the case of PAALAWTNFLKASYDLKMGA, the amyloid nucleation score is -0.587 ± 1.3.

ISISLRHECRYKMFEQ: the amyloid nucleation score was 2.22 ± 0.19. The value for RDKMDDWFQRHMESGTRTRE was 0.053 ± 0.23; that for VALIRGRD was 0.292 ± 0.32; that for GFSNLNSYD was -0.55 ± 0.3.

Take LDGTLVLTYL: the amyloid nucleation score came to 0.134 ± 0.42.

Consider CCLIHS, for which the amyloid nucleation score was determined as 1.38 ± 0.5. In the case of ILRPSSFNMVALDLNISLPK it was 4.82 ± 0.087. Regarding IIFWGLCICHPVLPTRGGWE, the amyloid nucleation score was 7.26 ± 0.084. As to DGFKAALICAIANY, the amyloid nucleation score was 0.397 ± 0.3.

In the case of SINHNGPDQLKGVPFSCSCV, the amyloid nucleation score entry was “inactive”.

VGKELLLSLRYSNWVCLDWF: the amyloid nucleation score is -0.715 ± 1.4. The substance RKFRGLVKLL yielded an amyloid nucleation score of 1.28 ± 0.85. Regarding MRHGSKAWQLYRLFKYDFFW, the amyloid nucleation score stood at 0.534 ± 0.9. Take DNKGYL: the amyloid nucleation score is -0.977 ± 1.

Regarding CQSGMSDDEGGQGRFVKCMG, the amyloid nucleation score stood at 0.114 ± 0.51. The value for MTEQVAANAEDWSVVGNWLV was 0.43 ± 0.5; that for WVLGGEFPYKRGGIAASLVL was -0.327 ± 0.84; that for GWMYVSMLFGVG was -0.455 ± 1.7. For the substance ICGTCCMPNLFVHHYIFLSP, the amyloid nucleation score was 6.708 ± 0.063. In the case of VVILYIDRFGVLFHHLG it was 0.821 ± 1.1; in that of NLSIRCLASFCPTGESWIRV, 0.971 ± 0.79. As for FRRFIFFVGYGHFIFWASWL, the amyloid nucleation score is -0.156 ± 0.68.

Take LAVRESIVQDKTWQDYE: the amyloid nucleation score is -0.102 ± 0.18. Turning to TILYVVARYF, the amyloid nucleation score is -0.004 ± 0.35.

With SSWYVITATFIKDCGMTARR, the amyloid nucleation score amounted to 4.03 ± 0.082. In the case of SMVKRSSVVYGLSRGSIKER it was 1.08 ± 0.69; in that of PIKAPLGASCGFAVRVTRTM, 0.391 ± 0.46; in that of MAVSNLSDLRLMSMRHFS, -0.794 ± 0.95. As to AIPLSDRR, the amyloid nucleation score came to 1.48 ± 0.88. As to FFLEAACYSIFGVEK, the amyloid nucleation score is -0.612 ± 0.3.

As for VDVMRVVLNLNCSRTSVIYM, the amyloid nucleation score was found to be 5.938 ± 0.048.

For MSFQY, the amyloid nucleation score was -2.11 ± 1.9. The value for MRRCTGMLCYTIS was 0.97 ± 0.53. Consider PRYRASVYYKDTRVLLLF, for which the amyloid nucleation score was found to be 0.512 ± 0.36.

Substance QVIEKFVAGCEGQKR returned an amyloid nucleation score of 2.31 ± 0.14. Substance WLKVGGEFSWSVQSVY returned an amyloid nucleation score of 0.071 ± 0.55. QLTPTLCDRSRCCPGGLFVY showed an amyloid nucleation score of 0.631 ± 0.58. Substance FTARTGALGEVVWSFSLGLG yielded an amyloid nucleation score of 0.316 ± 0.45. For GYPGCHLFVSWTTVGPVFFY, the amyloid nucleation score came to 8.239 ± 0.047. Consider CMPCSDFGSLWVAMDMNCFR, for which the amyloid nucleation score is 4.1 ± 0.085. Regarding FVCRLATNYH, the amyloid nucleation score entry is “inactive”. The value for RYIVVG was 0.106 ± 0.24. In turn, WFWLIRMYMSFYVVAFVGSG had an amyloid nucleation score of 1.31 ± 0.74. Regarding FPRLGCARTFSDHSMLACTI, the amyloid nucleation score is 0.098 ± 0.59. SGDRAYFSKFSVCIPRDRVQ: the amyloid nucleation score is -0.046 ± 0.67.

For NYICMGP, the amyloid nucleation score was 1.38 ± 0.41. For YILSISYYFPRGMVDIVMFM, the amyloid nucleation score is 0.5 ± 0.48. On to KDVVISVGGMSVVLFSSRPH, for which the amyloid nucleation score stood at 4.52 ± 0.091. As to MTSCMRWAVNRYSFLLWKAN, the amyloid nucleation score was -0.416 ± 0.29.

Take TYCNQWIGCMGYRKKHEPR: the amyloid nucleation score is -0.077 ± 0.41.

For the substance PKATRIALPFFLGLCFSMCL, the amyloid nucleation score was -0.143 ± 0.38. The value for ANSSLLEFHTYDWDLYSACL was -1.06 ± 1.5; that for TEKTVRCDLTWQTHLLLCFA was -0.369 ± 0.83. The value for LHNYLLCTRVNRIDVLRMTL was -0.854 ± 0.37. Take DYSNERLTDGLRMGGTRVSG: the amyloid nucleation score is 0.251 ± 0.54. Take TCLISCRLPDKGHGSVT: the amyloid nucleation score was -0.069 ± 0.44. The value for GLYFGLQLTGVS was 0.04 ± 0.35; that for RMQVKDLVDQVKTTFKCTHT was 0.303 ± 0.37; that for KLHDGFL was -0.96 ± 2.7.

In the case of SLECLALTFVGYVTGRLMDL, the amyloid nucleation score is -1.02 ± 1.7. The value for SVACPGLARMGRRSGREYNE was -1.46 ± 0.59; that for FSNDRCGFVAR was 0.149 ± 0.26. In the case of LSTKKTQTMRRVW, the amyloid nucleation score is 0.404 ± 0.44. On to TSREGRGSLSVWSG, for which the amyloid nucleation score is -0.19 ± 0.81.

On to VDYSLSENSTVLLNIWDL, for which the amyloid nucleation score was -0.008 ± 0.46.

As to EVWNRTWIGEENVTGPFVPR, the amyloid nucleation score is -0.012 ± 0.24. The value for SYTGHPMNDRWHIG was 3.4 ± 0.074. On to FTVSRPIMYIVYNCLHSVCV, for which the amyloid nucleation score was determined as 4.61 ± 0.049.

With FEHWCFRLPCVKDESCWD, the amyloid nucleation score is 0.821 ± 0.8. Substance FFVFSSLGHLV returned an amyloid nucleation score of 0.859 ± 0.26. Consider DSTRTDSLYVSACHLLYLAE, for which the amyloid nucleation score was 0.178 ± 0.64. The value for ADNFLFWHVIEYKENLDHAR was -1.32 ± 1.1; that for AVLYLSQFGLNRKRGYTA was 0.582 ± 0.56.

For LILILNGMRNWSLAEDGACS, the amyloid nucleation score was 0.326 ± 0.85.

As to FLYGYGADPMPMSSVGRGVK, the amyloid nucleation score is -0.864 ± 0.51. In the case of HCVRQTSWMLAENLAWEVWL it was 1.1 ± 0.58; in that of RGGSYMFRLYCVFLYGCYFG, -0.577 ± 0.72; in that of ESCKSVNCLMRQGDLRVTAW, -0.122 ± 0.3. Take LMLPFVYS: the amyloid nucleation score stood at 0.392 ± 0.37. In turn, EKSGAWSTVRRMISC had an amyloid nucleation score of 0.374 ± 0.23.

As to KTPLYLPYLYFSIRLMCYWY, the amyloid nucleation score was -0.47 ± 0.21.

SRSLPLHCMRHGVRRTGRMA displayed an amyloid nucleation score of 0.668 ± 0.57.

PGRIYGRSGCYRV yielded an amyloid nucleation score of 0.482 ± 0.69. Take FGGKHFYVGGRFGLLNMCDF: the amyloid nucleation score is -0.548 ± 2.1.

Regarding GGFAILNAREEHWGLKGSSM, the amyloid nucleation score is -0.491 ± 0.55.
